Data on one substance can be found in publication PMC7194074, “A Trichome-Specific, Plastid-Localized Tanacetum cinerariifolium Nudix Protein Hydrolyzes the Natural Pyrethrin Pesticide Biosynthetic Intermediate trans-Chrysanthemyl Diphosphate” (Frontiers in Plant Science, 2020).

For orientation: Km means the substrate concentration at which the rate is half of its maximum.

This data set concerns CC(C)=C[C@@H]1[C@@H](COP(=O)(O)OP(=O)(O)O)C1(C)C. As to the kind of experiment: purified protein. As to conditions: 100 mM Tris pH 7.5, 5 mM MgCl2, CPP 0.1 to 5 μM, 5 min, 1 μM enzyme stated for the general reactions.

For the substance TcNudix1 (Tanacetum cinerariifolium), the Km stood at 0.137 ± 0.05 µM.
